Molecular target: His6-GyrB subunit of M. tuberculosis DNA gyrase (M. tuberculosis H37Rv) (UniProt P9WG45)
Assay: SPR; BIAcore T200; […], association 180 s, dissociation 600 s; HBS-N

B1: MParE2 without the His6-tag (natural protein)
chain: MTRRLRVHNGVEDDLFEAFSYYADAAPDQIDRLYNLFVDAVTKRIPQAPNAFAPLFKHYRHIYLRPFRYYVAYRTTDEAIDILAVRHGMENPNAVEAEISGRTFE
With B1 the Kd was 4.75 µM.

Reference: PMC4906023
